Biological target: Arabidopsis thaliana transthyretin-like protein (TTL), 311-residue cytoplasmic isoform (Arabidopsis thaliana)
Experiment: SEC + other: sucrose density gradient rate zonal ultracentrifugation; Siegel and Monty method: Stokes radius from analytical gel filtration (Superose 12 10/300, 0.5 ml/min) and sedimentation coefficient from 5 to 20% sucrose gradients (25 h 15 min, 260800 g, SW41 Ti), both in buffer C (150 mM NaCl, EDTA, 20 mM Tris-HCl, pH 8.0); native mass 137.3 kDa against a subunit of 36.6 kDa

With “Arabidopsis thaliana transthyretin-like protein (TTL), 311-residue cytoplasmic isoform (enzyme)” the stoichiometry N was 4.

— paper PMC2834698
